# Laboratory results taken from US20140289906A1, “Compositions Having Dicamba Decarboxylase Activity and Methods of Use” (priority 2013, published 2014).
# Entries after “also recorded” stand apart in the source; their conditions may differ.
# Key:
# [1] = GC/MS detection of 2,5-dichloro phenol (2,5-DCP); kinetic determination; type: biochemical; details: purified protein, dicamba
# Procedure: The decarboxylated and demethylated product of dicamba, 2,5-dichloro phenol or 2,5-DCP (FIG. 1E) is measured using a GC/MS analytical procedure with either liquid injection after liquid/liquid extraction using toluene as the extraction solvent or gas injection using head space method. The head space sample analysis is carried out on an Agilent GC/MS system with a 6890A GC, a 5973N MSD and a CTC CombiPAL auto-sampler or with a 7890A GC, a 5975C MSD and an Agilent GC Sampler 80 auto-sampler with Phenomenex ZB-MultiResidue-1 column (30 m length, 0.25 mm diameter, 0.25 um film) or equivalent. GC/MS parameters are: GC inlet temperature, 200° C.; Carry gas, helium in constant flow mode (1.2 mL/min); Oven temperature program, 70° C. for 1 min and then ramp to 275° C. at 40° C./min. […] The reaction vial is transferred to a agitator for incubation at 90° C. for 4 min at 500 rpm. With a syringe preheated at 110° C., 1000 uL of head space is injected with sample fill speed at 100 uL/sec. A 2-mm diameter liner is used in sample inlet. The MS data acquisition is done in SIM (selected ion monitoring) mode. The positive ion at M/Z 162 for the molecular ion of 2,-5-DCP is monitored at retention time of 4.06 min. Solvent delay for MS acquisition is set at 3 min. GC/MS parameters for liquid sample analysis are the same as those for head space analysis, except that the volume of liquid injection is 1 uL.
# [2] = 14C assay: 14CO2 capture from [14C]-carboxyl-labeled dicamba with purified protein; type: biochemical
# [3] = Dicamba decarboxylation activity of computationally designed protein variants and parents (Tables 4, 5); details: for dicamba decarboxylase activity (statement in the description): native proteins and designed variants, assay not specified; for Percent Activity Improvement Over Parent (%): parent (SEQ ID NO: 1 or SEQ ID NO: 41) = 100
# [4] = 14C assay: 14CO2 capture from [14C]-carboxyl-labeled dicamba with IPTG-induced recombinant E. coli cells; details: for Enzymatic Detection level: dicamba decarboxylation activity; for Dicamba Decarboxylase Activity: IPTG-induced recombinant E. coli cells, 14CO2 from [14C]-carboxyl-labeled dicamba; for decarboxylation activity of dicamba: among the 108 sequences tested, recombinant E. coli cell assay
# [5] = LC-MS/MS detection of 4-chloro-3-methoxy phenol; type: biochemical; details: purified protein, dicamba
# Procedure: The decarboxylated and chloro hydrolyzed product, 4-chloro-3-methoxy phenol (FIG. 1D), is measured using a LC-MS/MS analytical procedure. […] 10 ul is removed from the reaction mixture and mixed with 90 ul pre-chilled methanol followed by centrifugation at 14,000 rpm for 15 min at 4° C. 10 ul of the supernatant is then transferred into 170 ul ddH2O to achieve 5% methanol solution for injection. 50 ul of the prepared sample is injected into a 4000 Q Trap LC-MS/MS system for sample analysis. LC-MS/MS parameters are: Mobile Phase A, 2 mM ammonium acetate in water; Mobile Phase B, 2 mM ammonium acetate in methanol; Column, Aquasil, 100×2.1 mm, 3 μm, C18 column; Flow Rate, 0.6 ml/min. The MS/MS fragment 157/142 which is common to 4-chloro-3-methoxy phenol, 2-chloro-5-methoxy phenol, and 3-chloro-5-methoxy phenol is monitored at a retention time of 2.88 min.
Molecule,"2,5-DCP product detected [1]",CO2 product detected [2],dicamba decarboxylase activity (statement in the description) [3],Percent Activity Improvement Over Parent (%) [3] [%],Enzymatic Detection level [4],4-chloro-3-methoxy phenol product detected [5],Dicamba Decarboxylase Activity [4],decarboxylation activity of dicamba [4]
"116 (protein, Dicamba decarboxylase variant clone DC.30.007) MAQGKVALEEHFAIPETLQDAAGFVPGDYWKELQHRLLDIQDRRVRLMDEHGIETMILSLNAPAVQAIADSTRANETARRANDFLAEQVAKQPTRFRGFAALPMQDPELAARELERCVKELGFVGALVNGFSQDNRSAVPLYYDMAQYWPFWETVQALDVPFYLHPRNPLPSDARIYDGHAWLLGPTWAFGQETAVHALRLMGSGLFDKYPALKIILGHMGEGLPYSMWRIDHRNAWIKTTPKYPAKRKIVDYFNENFYLTTSGNFRTQTLIDAILEIGADRILFSTDWPFENIDHAADWFENTSISEADRKKIGWGNAQNLFKLNR",detected,detected,improved dicamba decarboxylase activity; also recorded: displays an increase in dicamba decarboxylase activity,220,High,detected,–,–
"115 (protein, Dicamba decarboxylase variant clone DC.4.161) MAQGKVALEEHFAIPDTLTTYTTSGDYEKELKHRLLDIQDTRLKLMDAHGIETMILSLNAPGVQAIPDRRKAIEIARRANDVLAEECAKRPDRFLAFAALPLQDPDAATEELQRCVNDLGFVGALVNGFSQEGDGQTPLYYDLPQYRPFWGEVEKLDVPFYLHPRNPLPQDSRIYDGHPWLLGPTWAFAQETAVHALRLMASGLFDEHPRLNIILGHMGEGLPYMMWRIDHRNAWVKTPPRYPAKRRFMDYFNENFHITTSGNFRTQTLIDAILEIGADRILFSTDWPFENIDHASDWFNATSIAEADRVKIGRTNARRLFKLDGA",detected,detected,displays an increase in dicamba decarboxylase activity,–,High,detected,–,–
"108 (protein, listed as Staphylococcus aureus) MAKSITFEEHYVIEDIQKETMNAISADPKGVPMKVMLEGLEKKTGFTNADELSHHDERIQFMNNQDVQIQVLSYGNGSPSNLVGQKAIELCQKANDQLANYIAQYPNRFVGFATLPINEPEAAAREFERCINDLGFKGALIMGRAQDGFLDQDKYDIIFKTAENLDVPIYLHPAPVNSDIYQSYYKGNYPEVTAATFACFGYGWHIDVGIHAIHLVLSGIFDRYPKLNMIIGHWGEFIPFFLERMDEALFAEHLNHSVSYYFKNSFYITPSGMLTKPQFDLVKKEVGIDRILYAADYPYIEPEKLGVFLDELGLTDEEKEKISYTNGAKLLGLSSNN",detected,detected,–,–,High,detected,High,showed decarboxylation activity of dicamba
"114 (protein, Dicamba decarboxylase variant clone DC.4.116) MAQGKVALEEHFAIPETLQDSAGAVPGDYWKELQHRLLDIQDTRLKLMDAHGIETMILSLNAPAVQAIPDRRKAIEIARRANDVLAEECAKRPDRFLAFAALPLQDPDAATEELQRCVNDLGFVGALVNGFSQEGDGQTPLYYDLPQYRPFWGEVEKLDVPFYLHPRNPLPQDSRIYDGHPWLLGPTWAFAQETAVHALRLMASGLFDEHPRLNIILGHMGEGLPYMMWRIDHRVAWVKLPPRYPAKRRFMDYFNENFHITTSGNFRTQTLIDAILEIGADRILFSTDWPFENIDHASDWFNATSIAEADRVKIGRTNARRLFKLDGA",detected,detected,displays an increase in dicamba decarboxylase activity,–,High,detected,–,–
"109 (protein, Dicamba decarboxylase variant clone DC.4.032) MAQGKVALEEHFAIPETLQDSAGFVPGDYWKELQHRLLDIQDTRLKLMDAHGIETMILSLNAPAVQAIPDRRKAIEIARRANDVLAEECAKRPDRFLAFAALPLQDPDAATEELQRCVNDLGFVGALVNGFSQEGDGQTPLYYDLPQYRPFWGEVEKLDVPFYLHPRNPLPQDSRIYDGHPWLLGPTWAFAQETAVHALRLMASGLFDEHPRLNIILGHMGEGLPYMMWRIDHRVAWVKLPPRYPAKRRFMDYFNENFHITTSGNFRTQTLIDAILEIGADRILFSTDWPFENIDHASDWFNATSIAEADRVKIGRTNARRLFKLDGA",detected,detected,more active than their parent sequence; also recorded: displays an increase in dicamba decarboxylase activity,–,High,detected,–,–
"41 (protein, listed as Polaromonas sp.) MANGKIALEEHFATEETLMDSAGFVPDKDWPELRSRLLDIQDRRVRLMDEHGIETMILSLNAPAVQAIADSTRANETARRANDFLAEQVAKQPTRFRGFAALPMQDPELAARELERCVKELGFVGALVNGFSQDNRSAVPLYYDMAQYWPFWETVQALDVPFYLHPRNPLPSDARIYDGHAWLLGPTWAFGQETAVHALRLMGSGLFDKYPALKIILGHMGEGLPYSMWRIDHRNAWIKTTPKYPAKRKIVDYFNENFYLTTSGNFRTQTLIDAILEIGADRILFSTDWPFENIDHAADWFENTSISEADRKKIGWGNAQNLFKLNR",detected,detected,natural activity; also recorded: native dicamba decarboxylase activity,100,High,detected,High,showed decarboxylation activity of dicamba
"32 (protein, Streptomyces violaceusniger) MARIIAIEEHFLDLDIARASRPEAERLSPAFAAAYGAGQGYNYSPAPEVLLDLEEGRVADMDAHGISMQVLSSLSTQQLPADVAVELVRKVNDRAAAAVAARPDRFAAFAALPTTVPEAAADELDRAVGELGFVGSMINGRTGDAFLDAPRFDAVLRRSAELRVPVYLHPGVPPVETSRSNYEGGLDPIVTARLQTSAWGWHVETGIHFLHLVLAGVFDRYPDLQVILGHWGEMVPFFLERIEEALPQQITHLDRPVGAYFRENAHITPSGMFSQAQLQFCVETVGIERIMFSVDYPFLGNDGAEAFLRQANLPPLATEKIAHLNAERLLALPS",detected,detected,–,–,High,detected,High,showed decarboxylation activity of dicamba
"100 (protein, listed as Reinekea blandensis) MAIIDCHGHYTTTPKGVEDYRNAQKAAVAKDPSFKGEKGQVVVSDDEIRESIENNQLKMQRERGTDLTIFSPRASWMGHHIGNEYTSQFWTEHQNDLIRRVCDLFPKNFAPVAQLPQSPGVDPAKSVPEIVRTVEQMGFIGINLNPDPSGGYWKDTSLADRAFYPIYEKMVEYDIPAMIHVSAACNDCFHTTGSHYLGADTTGFQQLIMSDVFKDFPSLKIIIPHGGGAVPYHWGRFRGLMQDQGYAPLEESALKNIYFDTCVYHQRGIDLLLDIVPTQNILFASEMIGAVRGIDPETGHNFDDTKRYIDNNTALNAEEKAMIFEGNARRVFSRLKTD",–,–,Neither of the native proteins have dicamba decarboxylase activity,–,No,–,No,–
